Experimental data: publication PMC9672333 (2022)

Target: Wild type spike RBD (UniProt P0DTC2) (SARS-CoV-2, UniProt P0DTC2 319-541)

B1: Tixagevimab Biosimilar (antibody, V domains shown)
VH: QMQLVQSGPEVKKPGTSVKVSCKASGFTFMSSAVQWVRQARGQRLEWIGWIVIGSGNTNYAQKFQERVTITRDMSTSTAYMELSSLRSEDTAVYYCAAPYCSSISCNDGFDIWGQGTMVTVSS
VL: not shown
  Kd: 0.6 nM

B2: Casirivimab (antibody, V domains shown)
VH: QVQLVESGGGLVKPGGSLRLSCAASGFTFSDYYMSWIRQAPGKGLEWVSYITYSGSTIYYADSVKGRFTISRDNAKSSLYLQMNSLRAEDTAVYYCARDRGTTMVPFDYWGQGTLVTVSS
VL: DIQMTQSPSSLSASVGDRVTITCQASQDITNYLNWYQQKPGKAPKLLIYAASNLETGVPSRFSGSGSGTDFTFTISGLQPEDIATYYCQQYDNLPLTFGGGTKVEIK
  Kd: 0.8 nM

B3: Imdevimab (antibody, V domains shown)
VH: QVQLVESGGGVVQPGRSLRLSCAASGFTFSNYAMYWVRQAPGKGLEWVAVISYDGSNKYYADSVKGRFTISRDNSKNTLYLQMNSLRTEDTAVYYCASGSDYGDYLLVYWGQGTLVTVSS
VL: QSALTQPASVSGSPGQSITISCTGTSSDVGGYNYVSWYQQHPGKAPKLMIYDVSKRPSGVSNRFSGSKSGNTASLTISGLQSEDEADYYCNSLTSISTWVFGGGTKLTVL
  Kd: 65 nM
